The text below walks through data of publication PMC7730289.

Experiment in all cases: flow cytometry
(In general: Flow cytometry measures light scatter and fluorescence of single cells or particles in a stream.)

For series [1], the target named is CD63 overexpressed on HEK293T cells (UniProt P08962). Particulars: HEK293T/CD63 cells; PBS pH 7.4, 2.0 mM MgCl2, 0.02% Tween 20, 100 ug/mL salmon sperm DNA; ELISA 0.5 h; cells at RT 1 h (Methods) or 37 C 30 min (Results). (In general: An ELISA detects its analyte on a solid surface through an enzyme-linked reagent.)
Chain of CD63 overexpressed on HEK293T cells (P08962 whole entry): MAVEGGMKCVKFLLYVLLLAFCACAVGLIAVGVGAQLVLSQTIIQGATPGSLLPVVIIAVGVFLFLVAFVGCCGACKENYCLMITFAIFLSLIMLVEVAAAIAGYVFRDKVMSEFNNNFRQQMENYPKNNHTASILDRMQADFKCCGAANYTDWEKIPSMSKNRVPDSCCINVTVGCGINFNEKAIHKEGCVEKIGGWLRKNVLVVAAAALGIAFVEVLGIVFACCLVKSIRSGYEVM
The target in the next series is CD63 on MDA-MB-231 cells (UniProt P08962). The conditions noted are these: MDA-MB-231 cells; PBS pH 7.4, 2.0 mM MgCl2, 0.02% Tween 20, 100 ug/mL salmon sperm DNA; ELISA 0.5 h; cells at RT 1 h (Methods) or 37 C 30 min (Results).
Chain of CD63 on MDA-MB-231 cells (P08962 2-238): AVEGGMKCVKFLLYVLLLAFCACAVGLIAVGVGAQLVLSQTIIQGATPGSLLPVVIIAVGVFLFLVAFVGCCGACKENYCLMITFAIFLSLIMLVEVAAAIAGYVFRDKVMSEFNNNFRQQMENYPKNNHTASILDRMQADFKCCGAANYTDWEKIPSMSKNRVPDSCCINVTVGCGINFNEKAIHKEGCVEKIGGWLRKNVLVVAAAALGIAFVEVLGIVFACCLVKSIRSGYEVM
Series [2] relates to CD63-negative HEK293T cells. Particulars: PBS pH 7.4, 2.0 mM MgCl2, 0.02% Tween 20, 100 ug/mL salmon sperm DNA, ELISA 0.5 h, cells at RT 1 h (Methods) or 37 C 30 min (Results).

The term Kd denotes a measure of binding affinity in units of concentration. For “TAACACGACAGACGTTCGGAGGTCGAACCCTGACAGCGTGGGC [CD63-1 FAM]”, the values for the Kd (in series [1]; with CD63 on MDA-MB-231 cells; in series [2]) were 113 nM, 96.9 nM and greater than 1000 nM, respectively.
